Reference: patent publication US11306156

Each substance was assayed against tissue factor (TF) antigen (UniProt P13726) (assay: SPR (ProteOn), Fab captured on anti-penta-His, TF as analyte, 1:1 fit).
tissue factor (TF) antigen, sequence (P13726 33-251 limits assumed): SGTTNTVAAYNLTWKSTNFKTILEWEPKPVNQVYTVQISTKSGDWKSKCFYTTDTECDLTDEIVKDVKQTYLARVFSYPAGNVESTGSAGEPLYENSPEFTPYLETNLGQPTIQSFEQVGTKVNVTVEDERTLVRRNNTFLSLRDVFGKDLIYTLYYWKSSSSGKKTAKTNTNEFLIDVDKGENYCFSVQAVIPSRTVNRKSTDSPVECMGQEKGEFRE

In order of rising Change in KD with respect to wild type (-(log(KD design) - log(KD wt))):
1. D3H44 Fab heterodimer, H L143E_K145T_Q179E_S188L / L Q124R_T178R  -0.34
2. D3H44 Fab heterodimer, H Q179K / L Q124E_Q160E_T178E  -0.27
3. D3H44 Fab heterodimer, H L143E_K145T / L Q124R  -0.25
4. D3H44 Fab heterodimer, H L143K / L Q124E_V133D_S176L  -0.25
5. D3H44 Fab heterodimer, H L143R / L Q124E_V133E_S176L  -0.25
6. D3H44 Fab heterodimer, H L143A_Q179K / L Q124E_V133Y_T180E  -0.23
7. D3H44 Fab heterodimer, H L143K_D146G / L Q124E_V133D  -0.22
8. D3H44 Fab heterodimer, H L143R / L Q124E_V133E_Q160M  -0.21
9. D3H44 Fab heterodimer, H L143E_K145T_S188L / L Q124R_Q160K_T178R  -0.19
10. D3H44 Fab heterodimer, H L143R / L Q124E_V133E  -0.09
11. D3H44 Fab heterodimer, H S186K / L Q124E_S131T_T178F_T180E  -0.03
12. D3H44 Fab heterodimer, H Q179R / L Q124E_S176L_T180E  -0.02
13. D3H44 Fab heterodimer, H Q179K / L Q124E_S131T_T178Y_T180E  -0.01
14. D3H44 Fab heterodimer, H Q179R / L Q124E_T178E_T180E  -0.01
15. D3H44 Fab heterodimer, H S186K / L Q124E_T178E  0.01
16. D3H44 Fab heterodimer, H L124A_S186K / L Q124E_V133W_T180E  0.02
17. D3H44 Fab heterodimer, H S186K / L Q124E_T178E_T180E  0.02
18. D3H44 Fab heterodimer, H S186K / L Q124E_S176L_T180E  0.03
19. D3H44 Fab heterodimer, H Q179R / L Q124E_T178E  0.04
20. D3H44 Fab heterodimer, H Q179K / L S131E  0.05
21. D3H44 Fab heterodimer, H S186K / L S131E  0.05
22. D3H44 Fab heterodimer, H Q179R / L Q124E_S131T_T178Y_T180E  0.07
23. D3H44 Fab heterodimer, H S186K / L Q124E_S131T_T178Y_T180E  0.09
24. D3H44 Fab heterodimer, H L124A_Q179K / L Q124E_V133W_T180E  0.1
25. D3H44 Fab heterodimer, H Q179K / L Q124E_T178E_T180E  0.1
26. D3H44 Fab heterodimer, H Q179K / L Q124E_S131T_T178F_T180E  0.13
27. D3H44 Fab heterodimer, H Q179R / L Q124E_S131T_T178F_T180E  0.14
28. D3H44 Fab heterodimer, H L143E_K145T / L Q124R_T178R  0.15
29. D3H44 Fab heterodimer, H Q179R / L Q124E_Q160E_T178E  0.16
30. D3H44 Fab heterodimer, H Q179K / L Q124E_S176L_T180E  0.28
31. D3H44 Fab heterodimer, H S186R / L Q124E_T178E_T180E  0.49

In order of falling Kd:
1. D3H44 Fab heterodimer, H L143E_K145T_Q179E_S188L / L Q124R_T178R  340 pM
2. D3H44 Fab heterodimer, H Q179K / L Q124E_Q160E_T178E  290 pM
3. D3H44 Fab heterodimer, H L143E_K145T / L Q124R  280 pM
4. D3H44 Fab heterodimer, H L143K / L Q124E_V133D_S176L  280 pM
5. D3H44 Fab heterodimer, H L143R / L Q124E_V133E_S176L  280 pM
6. D3H44 Fab heterodimer, H L143A_Q179K / L Q124E_V133Y_T180E  270 pM
7. D3H44 Fab heterodimer, H L143K_D146G / L Q124E_V133D  250 pM
8. D3H44 Fab heterodimer, H L143R / L Q124E_V133E_Q160M  250 pM
9. D3H44 Fab heterodimer, H L143E_K145T_S188L / L Q124R_Q160K_T178R  240 pM
10. D3H44 Fab heterodimer, H L143R / L Q124E_V133E  200 pM
11. D3H44 Fab heterodimer, H Q179R / L Q124E_S176L_T180E  170 pM
12. D3H44 Fab heterodimer, H S186K / L Q124E_S131T_T178F_T180E  170 pM
13. D3H44 Fab heterodimer, H Q179K / L Q124E_S131T_T178Y_T180E  160 pM
14. D3H44 Fab heterodimer, H Q179R / L Q124E_T178E_T180E  160 pM
15. D3H44 Fab heterodimer, H L124A_S186K / L Q124E_V133W_T180E  150 pM
16. D3H44 Fab heterodimer, H S186K / L Q124E_S176L_T180E  150 pM
17. D3H44 Fab heterodimer, H S186K / L Q124E_T178E  150 pM
18. D3H44 Fab heterodimer, H S186K / L Q124E_T178E_T180E  150 pM
19. D3H44 Fab heterodimer, H Q179K / L S131E  140 pM
20. D3H44 Fab heterodimer, H Q179R / L Q124E_T178E  140 pM
21. D3H44 Fab heterodimer, H S186K / L S131E  140 pM
22. D3H44 Fab heterodimer, H Q179K / L Q124E_T178E_T180E  130 pM
23. D3H44 Fab heterodimer, H Q179R / L Q124E_S131T_T178Y_T180E  130 pM
24. D3H44 Fab heterodimer, H S186K / L Q124E_S131T_T178Y_T180E  130 pM
25. D3H44 Fab heterodimer, H L124A_Q179K / L Q124E_V133W_T180E  120 pM
26. D3H44 Fab heterodimer, H Q179K / L Q124E_S131T_T178F_T180E  120 pM
27. D3H44 Fab heterodimer, H L143E_K145T / L Q124R_T178R  110 pM
28. D3H44 Fab heterodimer, H Q179R / L Q124E_Q160E_T178E  110 pM
29. D3H44 Fab heterodimer, H Q179R / L Q124E_S131T_T178F_T180E  110 pM
30. D3H44 Fab heterodimer, H Q179K / L Q124E_S176L_T180E  80 pM
31. D3H44 Fab heterodimer, H S186R / L Q124E_T178E_T180E  50 pM

Each substance was assayed against tissue factor (TF) (human) (UniProt P13726) (assay: SPR (ProteOn), Fab captured on anti-penta His, TF analyte, 1:1 fit).
tissue factor (TF) (human), sequence (P13726 33-251 limits assumed): as above

In order of rising Kd:
1. H1L1 Fab heterodimer of LCCA set 9100 (D3H44 Fab; H: L124A_Q179K; L: Q124E_V133W_T180E)  120 pM
2. H1L1 Fab heterodimer of LCCA set 6037 (D3H44 Fab; H: L124A; L: V133W)  130 pM
3. H1L1 Fab heterodimer of LCCA set 9068 (D3H44 Fab; H: F174G; L: S131T_S176F_T178F)  130 pM
4. H1L1 Fab heterodimer of LCCA set 9041 (D3H44 Fab; H: A139C_C233S; L: F116C_C214S)  140 pM
5. H1L1 Fab heterodimer of LCCA set 9052 (D3H44 Fab; H: A139G_F174V_V190A; L: S131T_L135F_S176F_T178F)  140 pM
6. H1L1 Fab heterodimer of LCCA set 9073 (D3H44 Fab; H: F174V; L: S131T_S176F_T178Y)  140 pM
7. H1L1 Fab heterodimer of LCCA set 9102 (D3H44 Fab; H: L124A_S186K; L: Q124E_V133W_T180E)  150 pM
8. H1L1 Fab heterodimer of LCCA set 9043 (D3H44 Fab; H: F122C_C233S; L: S121C_C214S)  160 pM
9. H1L1 Fab heterodimer of LCCA set 9070 (D3H44 Fab; H: F174G; L: S131T_S176F_T178Y)  160 pM
10. H1L1 Fab heterodimer of LCCA set 9044 (D3H44 Fab; H: P175C_C233S; L: S162C_C214S)  180 pM
11. H1L1 Fab heterodimer of LCCA set 9071 (D3H44 Fab; H: F174V; L: S131T_S176F_T178F)  210 pM
12. H1L1 Fab heterodimer of LCCA set 9175 (D3H44 Fab; H: L124E_L143D_K145M; L: Q124K_V133G_S176R)  250 pM
13. H1L1 Fab heterodimer of LCCA set 9205 (D3H44 Fab; H: L124E_L143D_K145M; L: V133G_S176R_T178K)  280 pM

In order of falling change in KD vs wild type, -(log(KD design)-log(KD wt)):
1. H1L1 Fab heterodimer of LCCA set 9100 (D3H44 Fab; H: L124A_Q179K; L: Q124E_V133W_T180E)  0.1
2. H1L1 Fab heterodimer of LCCA set 6037 (D3H44 Fab; H: L124A; L: V133W)  0.07
3. H1L1 Fab heterodimer of LCCA set 9068 (D3H44 Fab; H: F174G; L: S131T_S176F_T178F)  0.07
4. H1L1 Fab heterodimer of LCCA set 9052 (D3H44 Fab; H: A139G_F174V_V190A; L: S131T_L135F_S176F_T178F)  0.06
5. H1L1 Fab heterodimer of LCCA set 9073 (D3H44 Fab; H: F174V; L: S131T_S176F_T178Y)  0.04
6. H1L1 Fab heterodimer of LCCA set 9102 (D3H44 Fab; H: L124A_S186K; L: Q124E_V133W_T180E)  0.02
7. H1L1 Fab heterodimer of LCCA set 9070 (D3H44 Fab; H: F174G; L: S131T_S176F_T178Y)  0
8. H1L1 Fab heterodimer of LCCA set 9071 (D3H44 Fab; H: F174V; L: S131T_S176F_T178F)  -0.12
9. H1L1 Fab heterodimer of LCCA set 9175 (D3H44 Fab; H: L124E_L143D_K145M; L: Q124K_V133G_S176R)  -0.21
10. H1L1 Fab heterodimer of LCCA set 9205 (D3H44 Fab; H: L124E_L143D_K145M; L: V133G_S176R_T178K)  -0.25
